Laboratory results from patent US20250144202A1 (KAIMI BIOMEDICINE CHENGDU, published 2025).
Where a chain is given by its changes, count along the chain named.

T1: FcγRIIA protein (UniProt P12318 36-218)
T1 construct: also called CD32a
T1 sequence: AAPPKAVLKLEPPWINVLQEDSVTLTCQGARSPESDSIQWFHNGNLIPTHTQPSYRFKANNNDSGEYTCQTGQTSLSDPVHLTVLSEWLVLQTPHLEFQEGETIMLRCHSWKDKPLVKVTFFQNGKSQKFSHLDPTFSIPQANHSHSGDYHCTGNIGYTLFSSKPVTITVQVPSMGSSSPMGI

B1: Seq2-Sf9 (murine IgG1 Fc variant with three mutations, alanine at positions 223, 228 and 230, expressed in Sf9 insect cells) (other)
chain: VDKKIVPADCGCAPCICAVPEVSSVFIFPPKPKDVLTITLTPKVTCVVVDISKDDPEVQFSWFVDDVEVHTAQTQPREEQFNSTFRSVSELPIMHQDWLNGKEFKCRVNSAAFPAPIEKTISKTKGRPKAPQVYTIPPPKEQMAKDKVSLTCMITDFFPEDITVEWQWNGQPAENYKNTQPIMDTDGSYFVYSKLNVQKSNWEAGNTFTCSVLHEGLHNHHTEKSLSHSPGL
notes: Fc fragment alone, expressed from the pFastBacHTa-gp64 vector in Sf9 cells and purified by Protein A; about 26 kDa on SDS-PAGE; also called mouse Fc with three mutations
B2: Seq3-Sf9 (murine IgG1 Fc variant with five mutations, alanine at 223, 228 and 230, leucine at 330, glutamic acid at 332, expressed in Sf9 insect cells) (other)
chain: B1 chain with A115L, I117E
notes: Fc fragment alone, expressed from the pFastBacHTa-gp64 vector in Sf9 cells and purified by Protein A; about 26 kDa on SDS-PAGE; also called mouse Fc with five mutations

Biological target: T1, FcγRIIA protein
Experiment: BLI, multi-concentration (5000 to 312.5 nM of the Fc variant)

| Binder | Kd |
| --- | --- |
| B1 | 789 nM |
| B2 | 450 nM |
